Measurements reported in article PMC8219737, “Direct activation of the proton channel by albumin leads to human sperm capacitation and sustained release of inflammatory mediators by neutrophils” (Nature Communications, 2021).

Target: the molecule itself
Assay: smTIRF single-molecule photobleaching (subunit counting); hHv1-G199L-TFP particles at the surface of live HEK293T cells; bleaching steps of TFP counted

B1: hHv1-G199L-TFP (natural protein, human, UniProt Q96D96-1 1-273, looked up)
chain: MATWDEKAVTRRAKVAPAERMSKFLRHFTVVGDDYHAWNINYKKWENEEEEEEEEQPPPTPVSGEEGRAAAPDVAPAPGPAPRAPLDFRGMLRKLFSSHRFQVIIICLVVLDALLVLAELILDLKIIQPDKNNYAAMVFHYMSITILVFFMMEIIFKLFVFRLEFFHHKFEILDAVVVVVSFILDIVLLFQEHQFEALLLLILLRLWRVARIINGIIISVKTRSERQLLRLKQMNVQLAAKIQHLEFSCSEKEQEIERLNKLLRQHGLLGEVN
notes: also used for the patch-clamp (functional) rows of hHv1-G199L; source: HEK293T, transfected, on live cells; not shown: teal fluorescent protein (TFP, via a 13-residue linker), C-terminal, kept
For B1, the “stoichiometry N” value was 2 subunits per particle.
